Publication PMC5934816, “Towards development of aptamers that specifically bind to lactate dehydrogenase of Plasmodium falciparum through epitopic targeting”

What was measured:
[1] = target: rPfLDH, lactate dehydrogenase (Plasmodium falciparum, UniProt Q71T02 1-316); test: ELONA; ELONA: 500 ng immobilized protein; aptamer in HMCKN (2 mM HEPES, 0.2 mM MgCl2, 0.2 mM CaCl2, 0.2 mM KCl, 15 mM NaCl, pH 7.4), 2 h, room temperature; washes HMCKN then 25 mM TBS pH 7.6, 0.1% NP-40; details: protein: recombinant; chain copies: 4; label: 5'-biotin
[2] = target: rPvLDH, lactate dehydrogenase (Plasmodium vivax, UniProt Q4PRK9 1-316); test: ELONA; details: protein: recombinant; chain copies: 4

| Binder | binding result [1] | binding result [2] | Kd [2] |
| --- | --- | --- | --- |
| C7 concatemer control (ssDNA) DNA: ACTTTGCACATGCTTATTCTTGTCTCCCATGCCTGTTGTGAGCCTCCTAAC | no binding | no binding | – |
| GTTCGATTGGATTGTGCCGGAAGTGCTGGCTCGAAC (ssDNA) [pL1] | – | – | 0.0792 ± 0.0127 µM |
